The record followed here is article PMC10619424.

The stoichiometry N is a count of units in the complex or per binding partner.

This experiment concerns the target haloalkane dehalogenase DmmarA from Mycobacterium marinum M (Mycobacterium marinum M). The experiment in a line: SAXS; SEC-purified DmmarA at 2, 4.5 and 8.7 mg/ml in 50 mM sodium acetate, 10 mM Tris pH 8.5; scattering curves fitted to the crystallographic monomer and dimer (CRYSOL), ab initio model (DAMMIN).

The substance “haloalkane dehalogenase DmmarA from Mycobacterium marinum M (enzyme)” yielded a stoichiometry N of 2.
